Measured values taken from publication PMC6536115.

Substrate: C[C@H](O)C(=O)O
Assay: cells, lysate or membranes
Settings: proton

B1: Monocarboxylate transporter 1 (MCT1) (Mus musculus) (protein)
chain: MPPAIGGPVGYTPPDGGWGWAVLVGAFISIGFSYAFPKSITVFFKEIEVIFSATTSEVSWISSIMLAVMYAGGPISSILVNKYGSRPVMIAGGCLSGCGLIAASFCNTVQELYLCIGVIGGLGLAFNLNPALTMIGKYFYKKRPLANGLAMAGSPVFLSTLAPLNQAFFDIFDWRGSFLILGGLLLNCCVAGSLMRPIGPEQVKLEKLKSKESLQEAGKSDANTDLIGGSPKGEKLSVFQTINKFLDLSLFTHRGFLLYLSGNVVMFFGLFTPLVFLSSYGKSKDFSSEKSAFLLSILAFVDMVARPSMGLAANTKWIRPRIQYFFAASVVANGVCHLLAPLSTTYVGFCVYAGVFGFAFGWLSSVLFETLMDLIGPQRFSSAVGLVTIVECCPVLLGPPLLGRLNDMYGDYKYTYWACGVILIIAGIYLFIGMGINYRLLAKEQKAEEKQKREGKEDEASTDVDEKPKETMKAAQSPQQHSSGDPTEEESPV
  Km: 3.88 ± 0.86 mM
  Vmax: 0.414 µmol/min/mg
